Measurements from publication PMC3894171, “Defining NELF-E RNA Binding in HIV-1 and Promoter-Proximal Pause Regions”.
Substitutions are numbered along the chain they refer to.

Columns and labels:
Conditions in all cases: protein: recombinant, tags: N-terminal His6 (pHIS-parallel1), label: 3' fluorescein (5-thiosemicarbazide)
dNELF-E [1] = target: T1, dNELF-E (Drosophila, UniProt P92204 1-280); experiment: F-EMSA; 10 mM HEPES-NaOH pH 7.5, 100 mM NaCl, 25 mM KCl, 1 mM MgCl2, 0.02% Tween-20, 0.01% IGEPAL CA-630, 10 µg/ml yeast tRNA; 2 nM RNA, 0-2000 nM protein, 1-2 h, binding temperature not stated; gel 5% acrylamide 0.5X TBE at 4 °C
T1 sequence: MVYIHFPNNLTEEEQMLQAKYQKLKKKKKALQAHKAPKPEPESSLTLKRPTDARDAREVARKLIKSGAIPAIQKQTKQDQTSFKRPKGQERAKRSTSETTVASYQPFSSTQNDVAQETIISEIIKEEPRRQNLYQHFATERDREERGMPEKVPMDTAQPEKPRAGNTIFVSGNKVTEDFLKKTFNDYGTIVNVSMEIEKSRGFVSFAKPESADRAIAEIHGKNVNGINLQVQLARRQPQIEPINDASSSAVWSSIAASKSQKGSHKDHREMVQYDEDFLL

hNELF-E [2] = target: T2, hNELF-E (human, UniProt P18615 1-380); experiment: as above
T2 sequence (P18615 whole entry): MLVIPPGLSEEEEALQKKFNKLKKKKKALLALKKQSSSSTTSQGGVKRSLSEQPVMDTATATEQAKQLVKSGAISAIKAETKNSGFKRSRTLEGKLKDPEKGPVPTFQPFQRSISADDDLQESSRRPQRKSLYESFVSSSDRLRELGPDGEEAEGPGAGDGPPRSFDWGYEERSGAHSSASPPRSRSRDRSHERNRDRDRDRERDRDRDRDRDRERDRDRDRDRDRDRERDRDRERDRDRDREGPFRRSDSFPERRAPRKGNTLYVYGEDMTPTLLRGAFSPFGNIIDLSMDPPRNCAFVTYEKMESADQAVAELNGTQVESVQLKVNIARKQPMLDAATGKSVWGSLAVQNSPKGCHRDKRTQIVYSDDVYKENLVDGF

dNELF-E [3] = target: T1, dNELF-E; experiment: fluorescence polarization; 10 mM HEPES-NaOH pH 7.5, 100 mM NaCl, 25 mM KCl, 1 mM MgCl2, 0.02% Tween-20, 0.01% IGEPAL CA-630, 10 µg/ml yeast tRNA; 2 nM RNA, 0-2000 nM protein, 1-2 h, binding temperature not stated; gel 5% acrylamide 0.5X TBE at 4 °C
hNELF-E [4] = target: T2, hNELF-E; experiment: as above
[5] = no predicted secondary structure

B1: HIV-1 TAR (structured_RNA)
RNA: GGUCUCUCUGGUUAGACCAGAUCUGAGCCUGGGAGCUCUCUGGCUAACUAGGGAACC
Kd (dNELF-E [1]; hairpin with UCU bulge): 350 ± 35 nM | Kd (hNELF-E [2]; hairpin with UCU bulge): 300 ± 20 nM | Kd (dNELF-E [3]; hairpin with UCU bulge): 130 ± 10 nM | Kd (hNELF-E [4]; hairpin with UCU bulge): 200 ± 10 nM

B2: Napt1-Δstem (ssRNA)
RNA: GGGGACUGAGGAGCAACACGGGCGAUUGGGGCCA
Kd (dNELF-E [1]; [5]): 205 ± 20 nM | Kd (dNELF-E [3]; [5]): 270 ± 130 nM

B3: Napt1min (structured_RNA)
RNA: GGCCCCACUGAGGAUGCCCACGGGCGAUUGGGGCCA
Kd (dNELF-E [1]; putative K-turn stem-loop): 44 ± 22 nM | Kd (hNELF-E [2]; putative K-turn stem-loop): 420 ± 90 nM | Kd (dNELF-E [3]; putative K-turn stem-loop): 21 ± 7 nM | Kd (hNELF-E [4]; putative K-turn stem-loop): 140 ± 10 nM

B4: Napt1NBEmut (structured_RNA)
RNA: B3 RNA with C8U, U9C, G10A, G12A
Kd (dNELF-E [1]; predicted structure kept as in Napt1min): 880 ± 170 nM

B5: Napt1+hairpin (structured_RNA)
RNA: GGCCCCACUGAGGAUGCCCACGGGCGUCCUCAGUGGGGCCA
Kd (dNELF-E [1]; hairpin, NBE base-paired): 810 ± 50 nM | Kd (dNELF-E [3]; hairpin, NBE base-paired): 470 ± 170 nM

B6: Napt25min (structured_RNA)
RNA: GGUCUCCAACUGAGGAUACCGCUCGAGGAAGCGAGUGGCGAUUUGGAGACCU
Kd (dNELF-E [1]; putative K-turn stem-loop): 53 ± 9 nM | Kd (dNELF-E [3]; putative K-turn stem-loop): 30 ± 2 nM

B7: HIV-1 TAR+A (structured_RNA)
RNA: GGUCUCUCUGGUUAGACCAGAUCUGAGCCUGAGGAGCUCUCUGGCUAACUAGGGAACC
Kd (dNELF-E [1]; hairpin with UCU bulge): 59 ± 2 nM | Kd (hNELF-E [2]; hairpin with UCU bulge): 250 ± 20 nM | Kd (dNELF-E [3]; hairpin with UCU bulge): 82 ± 1 nM | Kd (hNELF-E [4]; hairpin with UCU bulge): 250 ± 20 nM
